Laboratory results reported in PMC11666352.

How the values were obtained:
Assay in all cases: stopped-flow fluorescence anisotropy
Conditions in all cases: T17 carries SIMA; Kd: 5 mM Tricine-KOH pH 8.0, 100 mM KCl, 3.4 mM MgCl2, 0.1 mM each dNTP, 0.01% Tween 20, 20 nM hairpin, 55 C (SYTO 13 1/5000 listed in the shared buffer)
Taq pol E507K E507K = Taq pol E507K E507K (UniProt P19821)
Taq pol H639Y H639Y = Taq pol H639Y H639Y (UniProt P19821)
[1] = target: Taq pol D578S-R728Q-M747V D578S;R728Q;M747V (UniProt P19821)
[2] = target: Taq pol R573K-D578N R573K;D578N (UniProt P19821)
Taq pol WT = Taq pol WT (UniProt P19821)
Taq pol M747D M747D = Taq pol M747D M747D (UniProt P19821)
[3] = target: Taq pol D578S-R728Q-M747Q D578S;R728Q;M747Q (UniProt P19821)
[4] = target: Taq pol F667I-R728N-M747S F667I;R728N;M747S (UniProt P19821)
[5] = target: Taq pol E708Q-D732N E708Q;D732N (UniProt P19821)
[6] = target: Taq pol E507Q-S515N-D578S E507Q;S515N;D578S (UniProt P19821)
Taq pol E626K E626K = Taq pol E626K E626K (UniProt P19821)
Taq pol M747Q M747Q = Taq pol M747Q M747Q (UniProt P19821)
Taq pol S515N S515N = Taq pol S515N S515N (UniProt P19821)
Taq pol F667M F667M = Taq pol F667M F667M (UniProt P19821)
[7] = target: Taq pol E507K-A570T-M747Q E507K;A570T;M747Q (UniProt P19821)
[8] = target: Taq pol D578H-M747Q D578H;M747Q (UniProt P19821)
[9] = target: Taq pol E507K-A570G-M747Q E507K;A570G;M747Q (UniProt P19821)
[10] = target: Taq pol E507K-R536K-R660V E507K;R536K;R660V (UniProt P19821)
Taq pol D732N D732N = Taq pol D732N D732N (UniProt P19821)
Taq pol H639A H639A = Taq pol H639A H639A (UniProt P19821)
[11] = target: Taq pol S515N-M747S S515N;M747S (UniProt P19821)
Taq pol S515F S515F = Taq pol S515F S515F (UniProt P19821)
[12] = target: Taq pol D578N-V783I D578N;V783I (UniProt P19821)
Taq pol I707L I707L = Taq pol I707L I707L (UniProt P19821)
Taq pol E708D E708D = Taq pol E708D E708D (UniProt P19821)
[13] = target: Taq pol S515D-K540M S515D;K540M (UniProt P19821)
Taq pol D578N D578N = Taq pol D578N D578N (UniProt P19821)
Taq pol S515D S515D = Taq pol S515D S515D (UniProt P19821)
Taq pol H639F H639F = Taq pol H639F H639F (UniProt P19821)
Taq pol M747E M747E = Taq pol M747E M747E (UniProt P19821)
Taq pol D578W D578W = Taq pol D578W D578W (UniProt P19821)
Taq pol R660V R660V = Taq pol R660V R660V (UniProt P19821)
[14] = target: Taq pol E742K-A743R E742K;A743R (UniProt P19821)
[15] = target: Taq pol E507K-D732N E507K;D732N (UniProt P19821)
[16] = target: Taq pol E507Q-D578S-I614M E507Q;D578S;I614M (UniProt P19821)
[17] = target: Taq pol E507R-R573K-E708Q E507R;R573K;E708Q (UniProt P19821)
Taq pol E507D E507D = Taq pol E507D E507D (UniProt P19821)
[18] = target: Taq pol E507Q-D578S-R728Q E507Q;D578S;R728Q (UniProt P19821)
Taq pol F667A F667A = Taq pol F667A F667A (UniProt P19821)
Taq pol R660S R660S = Taq pol R660S R660S (UniProt P19821)
[19] = target: Taq pol V586N-M747T V586N;M747T (UniProt P19821)
Taq pol E507Q E507Q = Taq pol E507Q E507Q (UniProt P19821)
[20] = target: Taq pol D578Q-D732N D578Q;D732N (UniProt P19821)
Taq pol D578K D578K = Taq pol D578K D578K (UniProt P19821)
Taq pol F667Y F667Y = Taq pol F667Y F667Y (UniProt P19821)
[21] = target: Taq pol E507K-D578E E507K;D578E (UniProt P19821)
Taq pol E708L E708L = Taq pol E708L E708L (UniProt P19821)

GCTATGCGTGAGCGCTTTTGCGCTCACGCATAGC [H-Kd hairpin]
Kd (Taq pol E507K E507K): 3.38 nM | Kd (Taq pol H639Y H639Y): 7.46 nM | Kd [1]: 13.8 nM | Kd [2]: 4.33 nM | Kd (Taq pol WT): 6.19 nM | Kd (Taq pol M747D M747D): 29.6 nM | Kd [3]: 10.3 nM | Kd [4]: 14.4 nM | Kd [5]: 4.33 nM | Kd [6]: 2.91 nM | Kd (Taq pol E626K E626K): 5.74 nM | Kd (Taq pol M747Q M747Q): 4.41 nM | Kd (Taq pol S515N S515N): 6.71 nM | Kd (Taq pol F667M F667M): 8.79 nM | Kd [7]: 1.53 nM | Kd [8]: 3.29 nM | Kd [9]: 5.15 nM | Kd [10]: 0.79 nM | Kd (Taq pol D732N D732N): 2.6 nM | Kd (Taq pol H639A H639A): 8.14 nM | Kd [11]: 1.93 nM | Kd (Taq pol S515F S515F): 211 nM | Kd [12]: 2.19 nM | Kd (Taq pol I707L I707L): 8.54 nM | Kd (Taq pol E708D E708D): 4.51 nM | Kd [13]: > 200 nM | Kd (Taq pol D578N D578N): 4.26 nM | Kd (Taq pol S515D S515D): 80.7 nM | Kd (Taq pol H639F H639F): 6.55 nM | Kd (Taq pol M747E M747E): 25.5 nM | Kd (Taq pol D578W D578W): 4.99 nM | Kd (Taq pol R660V R660V): 6.21 nM | Kd [14]: 0.51 nM | Kd [15]: 1.69 nM | Kd [16]: 1.17 nM | Kd [17]: 0.96 nM | Kd (Taq pol E507D E507D): 21.4 nM | Kd [18]: 6.29 nM | Kd (Taq pol F667A F667A): 11.1 nM | Kd (Taq pol R660S R660S): 10.6 nM | Kd [19]: 14.1 nM | Kd (Taq pol E507Q E507Q): 4.78 nM | Kd [20]: 0.8 nM | Kd (Taq pol D578K D578K): 4.2 nM | Kd (Taq pol F667Y F667Y): 11.7 nM | Kd [21]: 1.07 nM | Kd (Taq pol E708L E708L): 6.82 nM
